Measurements as given in patent US9730926B2, “Combination therapy using bispecific anti-c-Met/anti-EGFR antibody and c-Src inhibitor” (Samsung Electronics Co., Ltd., priority 2014, dated 2017).

Legend:
[1] = test system: EGFR T790M mutated non-small cell lung cancer cell line (H1975); details: FIGS. 17 to 19; for cell proliferation, co-treatment with bispecific antibody compared to c-Src inhibitor alone: c-Src inhibitor 10, 100, 1000 nM + 5 μg/ml ME22S, HGF and EGF 100 ng/ml, 72 hours; for dose dependence of the synergistic effect by co-treatment with bispecific antibody: c-Src inhibitor concentration varied, ME22S 5 μg/ml
Protocol: (§1) The cells were stored in RPMI1640 medium (GIBCO) containing 10%(v/v) FBS under the conditions of 5% CO2 and 37° C., until being used in the following experiments. A cell proliferation assay was performed as follows.
(§2) In detail, RPMI1640 medium (GIBCO) containing 10% FBS was added to 96-well plate.
(§3) At 72 hours after the treatment, 10 μL of Cell Counting Kit-8 solution (Dojindo Molecular Technologies, Gaithersburg, Md.) was added to each well, and left at room temperature for 2 hours.

[2] = test system: K-Ras mutated colorectal cancer cell line (HCT-116 cell line); assay: Cell proliferation assay (Cell Counting Kit-8), HCT-116 cell line; format: cell-based; details: for cell proliferation, co-treatment with ME22S compared to c-Src inhibitor alone: dasatinib 10-1000 nM or saracatinib 10-10000 nM + 5 μg/ml ME22S
Protocol: as §1
RPMI1640 medium (GIBCO) containing 10% FBS was added to 96-well plate.
as §3, §2

[3] = test system: K-Ras mutated colorectal cancer cell line (Lovo cell line); assay: Cell proliferation assay (Cell Counting Kit-8), Lovo cell line; format: cell-based; details: for cell proliferation, co-treatment with ME22S compared to c-Src inhibitor alone: c-Src inhibitor 10, 100, 1000 nM + 5 μg/ml ME22S
[4] = test system: K-Ras mutated colorectal cancer cell line (Lovo cell line); assay: as above; format: cell-based; details: FIG. 4, FIG. 5
Protocol: To examine the cell proliferation inhibition effect depending on the amount of a bispecific anti-c-Met/anti-EGFR antibody, the experiment was carried out by varying the amount of the treated bispecific anti-c-Met/anti-EGFR antibody with fixing the amount of dasatini as 30 nM.
This experiment was conducted referring to the experiment of the cell proliferation test depending on the amount of the antibody as described above, except the amount of the treated antibody and the c-Src inhibitor.

[5] = test system: EGFR T790M mutated non-small cell lung cancer cell line (H820 cell line); assay: Cell proliferation assay (Cell Counting Kit-8), H820 cell line; format: cell-based
Source text: The H820 cell line was obtained from ATCC. The H820 cells comprise EGFR T790M mutation.

[6] = 5 μg/ml alone, HGF and EGF 100 ng/ml, 72 hours

Question: With COc1cc(Nc2c(C#N)cnc3cc(OCCCN4CCN(C)CC4)c(OC)cc23)c(Cl)cc1Cl [bosutinib, 4-[(2,4-dichloro-5-methoxyphenyl)amino]-6-methoxy-7-[3-(4-methylpiperazin-1-yl)propoxy]quinoline-3-carbonitrile] as the molecule, how does the “cell proliferation, co-treatment with bispecific antibody compared to c-Src inhibitor alone” value [1] read?
Answer: significantly synergistic therapeutic effect

Question: And the “dose dependence of the synergistic effect by co-treatment with bispecific antibody” value [1]?
Answer: generally dose-dependent for the c-Src inhibitor

Question: Which results are given for CN1CCN(CCOc2cc(OC3CCOCC3)c3c(Nc4c(Cl)ccc5c4OCO5)ncnc3c2)CC1 [saracatinib, 4-Quinazolinamine, N-(5-Chloro-1,3-benzodioxol-4-yl)-7-[2-(4-methyl-1-piperazinyl)ethoxy]-5-[(tetrahydro-2H-pyran-4-yl)oxy]-4-quinazolinamine]?
Answer: dose dependence of the synergistic effect by co-treatment with ME22S ([2]; c-Src inhibitor concentration varied, ME22S 5 μg/ml, FIG. 14, FIG. 15): generally dose-dependent for the c-Src inhibitor; cell proliferation, co-treatment with ME22S compared to c-Src inhibitor alone ([2]; 72 hours, FIG. 14, FIG. 15): significantly synergistic therapeutic effect; cell proliferation, co-treatment with bispecific antibody compared to c-Src inhibitor alone [1]: significantly synergistic therapeutic effect; dose dependence of the synergistic effect by co-treatment with bispecific antibody [1]: generally dose-dependent for the c-Src inhibitor; cell proliferation, co-treatment with ME22S compared to c-Src inhibitor alone ([3]; 72 hours, FIG. 6, FIG. 7): more synergistic therapeutic effect; dose dependence of the synergistic effect by co-treatment with ME22S ([3]; c-Src inhibitor concentration varied, ME22S fixed at 5 μg/ml, FIG. 6, FIG. 7): generally dose-dependent for the c-Src inhibitor

Question: For Cc1nc(Nc2ncc(C(=O)Nc3c(C)cccc3Cl)s2)cc(N2CCN(CCO)CC2)n1 [dasatinib, N-(2-chloro-6-methylphenyl)-2-[[6-[4-(2-hydroxyethyl)-1-piperazinyl]-2-methyl-4-pyrimidinyl]amino]-5-thiazole carboxamide monohydrate, reference compound], which “cell proliferation, co-treatment with ME22S compared to c-Src inhibitor alone” value ([2]; 72 hours, FIG. 14, FIG. 15) is on record?
Answer: significantly synergistic therapeutic effect

Question: And the “cell proliferation, co-treatment with ME22S compared to c-Src inhibitor alone” value ([3]; 72 hours, FIG. 6, FIG. 7)?
Answer: more synergistic therapeutic effect

B1: ME-19: bispecific anti-c-Met/anti-EGFR antibody: anti-EGFR DARPin fused to C-terminus of L3-1Y heavy chain through (G4S)2 linker (antibody)
heavy: EVQLVESGGGLVQPGGSLRLSCAASGFTFTDYYMSWVRQAPGKGLEWLGFIRNKANGYTTEYSASVKGRFTISRDNSKNTLYLQMNSLRAEDTAVYYCARDNWFAYWGQGTLVTVSSASTKGPSVFPLAPCSRSTSESTAALGCLVKDYFPEPVTVSWNSGALTSGVHTFPAVLQSSGLYSLSSVVTVPSSNFGTQTYTCNVDHKPSNTKVDKTVERKCCVECPPCPAPPVAGPSVFLFPPKPKDTLMISRTPEVTCVVVDVSHEDPEVQFNWYVDGVEVHNAKTKPREEQFNSTFRVVSVLTVVHQDWLNGKEYKCKVSNKGLPAPIEKTISKTKGQPREPQVYTLPPSREEMTKNQVSLTCLVKGFYPSDIAVEWESNGQPENNYKTTPPMLDSDGSFFLYSKLTVDKSRWQQGNVFSCSVMHEALHNHYTQKSLSLSPGKGGGGSGGGGSDLGKKLLEAARAGQDDEVRILMANGADVNADDTWGWTPLHLAAYQGHLEIVEVLLKNGADVNAYDYIGWTPLHLAADGHLEIVEVLLKNGADVNASDYIGDTPLHLAAHNGHLEIVEVLLKHGADVNAQDKFGKTAFDISIDNGNEDLAEILQ
light: DIQMTQSPSSLSASVGDRVTITCKSSQSLLASGNQNNYLAWYQQKPGKAPKMLIIWASTRVSGVPSRFSGSGSGTDFTLTISSLQPEDFATYYCQQSYSRPYTFGQGTKVEIKRTVAAPSVFIFPPSDEQLKSGTASVVCLLNNFYPREAKVQWKVDNALQSGNSQESVTEQDSKDSTYSLSSTLTLSKADYEKHKVYACEVTHQGLSSPVTKSFNRGEC
Question: With B1 as the molecule, how does the “cell proliferation, co-treatment with dasatinib compared to bispecific antibody alone” value ([4]; ME-19 10, 1, 0.1, 0.01 μg/ml or ME22S 1, 0.1, 0.01 μg/ml + 30 nM dasatinib, 72 hours) read?
Answer: more synergistic therapeutic effect

Question: What about the “dose dependence of the synergistic effect by co-treatment with dasatinib” value ([4]; antibody concentration varied, dasatinib fixed at 30 nM) of the same molecule?
Answer: dose-dependent for the antibody

Question: And the “cell proliferation, co-treatment with c-Src inhibitor compared to either alone” value ([5]; ME19 0.01, 0.1, 1 or 10 μg/ml + dasatinib 30 nM, 72 hours, FIG. 10)?
Answer: more considerable inhibition effect on the cell proliferation

Question: What about the “dose dependence of the inhibition effect on cell proliferation” value ([5]; ME19 concentration varied, dasatinib 30 nM, FIG. 10) of the same molecule?
Answer: generally dose-dependent for the bispecific anti-c-Met/anti-EGFR antibody

Question: What about the “cell proliferation, bispecific antibody + dasatinib compared to co-treatment of dasatinib, L3-1Y and erbitux” value ([2]; 5 μg/ml ME19 + 5 nM dasatinib, 72 hours, FIG. 13) of the same molecule?
Answer: considerable inhibition effect on cancer cell proliferation

Question: What about the “cell proliferation, co-treatment with dasatinib compared to each of the drugs” value ([2]; 5 μg/ml ME19 + 5 nM dasatinib, HGF and EGF 100 ng/ml, 72 hours, FIG. 13) of the same molecule?
Answer: more considerable cell proliferation inhibition effect

Question: What about the “cell proliferation, bispecific antibody + dasatinib compared to co-treatment of dasatinib, L3-1Y and erbitux” value ([3]; 5 μg/ml antibody + 30 nM dasatinib, 72 hours) of the same molecule?
Answer: considerable inhibition effect on cancer cell proliferation

Question: And the “cell proliferation, combination with dasatinib compared to the drugs alone” value ([3]; 5 μg/ml antibody + 30 nM dasatinib, HGF and EGF 100 ng/ml, 72 hours, FIG. 2, FIG. 3)?
Answer: considerable inhibitory effect on the cell proliferation

B2: L3-1Y: anti-c-Met antibody: huAbF46-H4-A1 variable regions, human IgG2 hinge and constant region, human kappa light chain (antibody)
heavy: EVQLVESGGGLVQPGGSLRLSCAASGFTFTDYYMSWVRQAPGKGLEWLGFIRNKANGYTTEYSASVKGRFTISRDNSKNTLYLQMNSLRAEDTAVYYCARDNWFAYWGQGTLVTVSSASTKGPSVFPLAPCSRSTSESTAALGCLVKDYFPEPVTVSWNSGALTSGVHTFPAVLQSSGLYSLSSVVTVPSSNFGTQTYTCNVDHKPSNTKVDKTVERKCCVECPPCPAPPVAGPSVFLFPPKPKDTLMISRTPEVTCVVVDVSHEDPEVQFNWYVDGVEVHNAKTKPREEQFNSTFRVVSVLTVVHQDWLNGKEYKCKVSNKGLPAPIEKTISKTKGQPREPQVYTLPPSREEMTKNQVSLTCLVKGFYPSDIAVEWESNGQPENNYKTTPPMLDSDGSFFLYSKLTVDKSRWQQGNVFSCSVMHEALHNHYTQKSLSLSPGK
light: DIQMTQSPSSLSASVGDRVTITCKSSQSLLASGNQNNYLAWYQQKPGKAPKMLIIWASTRVSGVPSRFSGSGSGTDFTLTISSLQPEDFATYYCQQSYSRPYTFGQGTKVEIKRTVAAPSVFIFPPSDEQLKSGTASVVCLLNNFYPREAKVQWKVDNALQSGNSQESVTEQDSKDSTYSLSSTLTLSKADYEKHKVYACEVTHQGLSSPVTKSFNRGEC
Question: Which “cell proliferation, L3-1Y in combination with erbitux” value ([5]; 5 μg/ml L3-1Y + 5 μg/ml erbitux, 72 hours) does the source give for B2 here?
Answer: increased cell proliferation

Question: What about the “cell proliferation, antibody alone” value [5, 6] of the same molecule?
Answer: increased cell proliferation

Question: And the “cell proliferation, L3-1Y in combination with erbitux” value ([3]; 5 μg/ml L3-1Y + 5 μg/ml erbitux, HGF and EGF 100 ng/ml, 72 hours)?
Answer: increased cell proliferation

Question: What about the “cell proliferation, antibody alone” value [3, 6] of the same molecule?
Answer: increased cell proliferation
